In patent US6949577B2, “Pharmaceuticals” (Pfizer, Inc., priority 2000, dated 2005):

Tested on: thrombi in the left circumflex (LCX) coronary artery
Test: Lysis of coronary artery thrombi by TAFIa inhibitor in conjunction with t-PA
Assay type: in vivo, dogs
From the text: The study was designed with 4 groups (8 dogs/group): • (i) aspirin pre-treatment/vehicle infusion; • (ii) no pre-treatment/vehicle infusion; • (iii) no pre-treatment/TAFIa inhibitor; and • (iv) aspirin pre-treatment/TAFIa inhibitor.
Thirty minutes after initiating vehicle or compound infusion a continuous electrical current was delivered to the lumen of the left circumflex (LCX) coronary artery to cause endothelial damage and stimulate the production of a thrombus. Thrombi were allowed to mature for 1 hour prior to attempting to lyse the thrombus and cause vessel reperfusion with t-PA. A total of 4 bolus injections of t-PA (each 0.45 mg/kg i.v.) were given sequentially at 15 minute intervals. Blood flow through the coronary artery was then monitored for a further 2 hours so as to assess vessel patency. Time to vessel occlusion, and reperfusion were measured and the quantity and quality of blood flow analysed post-vessel re-perfusion. In addition, the effect of treatment on surgical bleeding, activated clotting time, cutaneous bleeding and platelet aggregation was also assessed.

B1: tPA: recombinant tissue plasminogen activator (tPA), a profibrinolytic antithrombotic (protein, UniProt P00750 36-562, looked up)
Tissue-type plasminogen …: SYQVICRDEKTQMIYQQHQSWLRPVLRSNRVEYCWCNSGRAQCHSVPVKSCSEPRCFNGGTCQQALYFSDFVCQCPEGFAGKCCEIDTRATCYEDQGISYRGTWSTAESGAECTNWNSSALAQKPYSGRRPDAIRLGLGNHNYCRNPDRDSKPWCYVFKAGKYSSEFCSTPACSEGNSDCYFGNGSAYRGTHSLTESGASCLPWNSMILIGKVYTAQNPSAQALGLGKHNYCRNPDGDAKPWCHVLKNRRLTWEYCDVPSCSTCGLRQYSQPQFRIKGGLFADIASHPWQAAIFAKHRRSPGERFLCGGILISSCWILSAAHCFQERFPPHHLTVILGRTYRVVPGEEEQKFEVEKYIVHKEFDDDTYDNDIALLQLKSDSSRCAQESSVVRTVCLPPADLQLPDWTECELSGYGKHEALSPFYSERLKEAHVRLYPSSRCTSQHLLNRTVTDNMLCAGDTRSGGPQANLHDACQGDSGGPLVCLNDGRMTLVGIISWGLGCGQKDVPGVYTKVTNYLDWIRDNMRP
injured vessels patent at the end of the experiment (8 dogs/group, all groups received t-PA): 2/8
blood flow post-reperfusion (FIG. 1) (dogs, t-PA 4 x 0.45 mg/kg i.v. boluses, comparison of treatment groups): superior to the combination of tPA and aspirin
